Measurements reported in patent publication US20230241247.

Assays:
[1] = target: hamster IgG (IgG in pooled hamster plasma)
[2] = target: human IgG (total IgG in human serum / pooled human plasma)
[3] = target: rhesus IgG (total IgG in rhesus macaque plasma)

B1: immunoglobulin G (IgG)-degrading enzyme from Streptococcus pyogenes (IdeS; Promega) (protein)
chain: DSFSANQEIRYSEVTPYHVTSVWTKGVTPPANFTQGEDVFHAPYVANQGWYDITKTFNGKDDLLCGAATAGNMLHWWFDQNKDQIKRYLEEHPEKQKINFNGEQMFDVKEAIDTKNHQLDSKLFEYFKEKAFPYLSTKHLGVFPDHVIDMFINGYRLSLTNHGPTPVKEGSKDPRGGIFDAVFTRGDQSKLLTSRHDFKEKNLKEISDLIKKELTEGKALGLSHTYANVRINHVINLWGADFDSNGNLKAIYVTDSDSNASIGMKKYFVGVNSAGKVAISAKEIKEDNIGAQVLGLFTLSTGQDSWNQTN
[1]
  cleavage of IgG in serum/plasma in vitro (non-reducing SDS-PAGE, Coomassie stain): IdeS is a highly efficient and specific protease of human IgG, rhesus IgG and hamster IgG
[2]
  cleavage of IgG in serum/plasma in vitro (non-reducing SDS-PAGE, Coomassie stain): IdeS is a highly efficient and specific protease of human IgG, rhesus IgG and hamster IgG
[3]
  cleavage of IgG in serum/plasma in vitro (non-reducing SDS-PAGE, Coomassie stain): IdeS is a highly efficient and specific protease of human IgG, rhesus IgG and hamster IgG
